Results published in patent US20150175707A1.

What was measured:
[1] = target: IgG1-005-E345R/E430G/Y436I/S440K (human); test: HP-SEC of an equimolar mixture, PBS pH 7.4; Fc:Fc hetero-oligomerization
[2] = target: IgG1-005-E345R/E430G/S440K (human); test: as above
[3] = target: C1q from pooled human serum (human) (UniProt P02745); test: C1q binding ELISA; antibody dilution series coated, 3% pooled human serum as C1q source, anti-C1q detection
[4] = target: Protein A (ready-to-use protein A sensortips, Fortebio) (Staphylococcus aureus) (UniProt P38507); test: Octet QK, protein A sensor tips, against an IgG standard curve; A280 concentration of the sample 2905 µg/ml
[5] = target: FcγRIIIa receptor, V158 (high affinity) variant, on Jurkat effector cells (UniProt P08637); test: cell-based or functional assay
[6] = target: Protein A (ready-to-use protein A sensortips, Fortebio) (Staphylococcus aureus) (UniProt P38507); test: ratio of the concentrations by A280 and by Octet protein A sensor tips
[7] = target: IgG1-005-E345R/E430G/S440Y (human); test: dynamic light scattering, 2.86 mg/mL in PBS pH 7.4; Fc:Fc self-oligomerization
[8] = target: IgG1-005-E345R/E430G/S440Y (human); test: HP-SEC with multiple angle light scattering; Fc:Fc self-oligomerization
[9] = target: Protein A (ready-to-use protein A sensortips, Fortebio) (Staphylococcus aureus) (UniProt P38507); test: Octet QK, protein A sensor tips, against an IgG standard curve; A280 concentration of the sample 3818 µg/ml

% multimers (HP-SEC) [1] [%]	% multimers (HP-SEC) [2] [%]	Substance	EC50 [3] [mg/L]	Octet-Protein A (apparent IgG concentration) [4] [µg/mL]	EC50 (ADCC reporter assay) [5] [mg/L]	Maximal signal (ADCC reporter assay) [5] [RLU]	A280/Protein A × 100 (%) [6] [%]	apparent MW (DLS) [7] [kDa]	monomeric subunits per complex (DLS) (monomeric subunits) [7]	apparent average MW of the multimeric peak (MALS) [8] [kDa]	monomeric subunits per complex (MALS) (monomeric subunits) [8]	Octet-Protein A (apparent IgG concentration) [9] [µg/mL]
93	65	IgG1-005-E345R/E430G/K439E/S440Y (antibody)	–	–	–	–	–	–	–	–	–	–
–	–	HuMab 005 mutant E345R (antibody)	0.836	–	–	–	–	–	–	–	–	–
–	–	IgG1-005-E345R/E430G/S440Y (antibody)	0.52	2050	0.036	394000	0.71	876	6.17	772	5.4	–
–	–	HuMab 005 (wild type IgG1-005), fully human IgG1,κ antibody against human CD38	1.55	–	0.0095	335000	0.95	–	–	–	–	3620
